Target: PfCoronin^R100K/E107V-smHA (P. falciparum (Pikine isolate, SenP019.04))
Experiment: affinity purification with mass spectrometry

PfActin (from UniProt Q8I4X0 1-376) (natural protein)
fold reduction of normalised abundance against PfCoronin^WT-smHA: 3 fold
